US20240116985A1 (published 2024)
Starred links: 1 amine or outer side, 2 acyl side, 3 side chain; linkers in the order of their positions; H or OH if unused. Positions of bridges follow the written chain, without caps; N, C: chain ends. Non-standard residues stand in square brackets, D forms with d. Primed or numbered codes have the meaning given here. PyrS2″ = (S)-3-amino-1-((pent-4-en-1-yloxy)carbonyl)pyrrolidine-3-carboxylic acid (stapling residue), C=CCCCOC(=O)N1CC[C@@](N[*:1])(C(=O)[*:2])C1; B5(16) = 2-amino-2-(pent-4-en-1-yl)hept-6-enoic acid = 2,2-bis(4-pentenyl)glycine (stitching residue), C=CCCCC(CCCC=C)(N[*:1])C(=O)[*:2]; B5(4) = 2,2-bis(4-pentenyl)glycine = 2-amino-2-(pent-4-en-1-yl)hept-6-enoic acid (stitching residue), C=CCCCC(CCCC=C)(N[*:1])C(=O)[*:2]; B5(5) = 2,2-bis(4-pentenyl)glycine, 2-amino-2-(pent-4-en-1-yl)hept-6-enoic acid (stitching residue), C=CCCCC(CCCC=C)(N[*:1])C(=O)[*:2]; PyrS2 = (S)-3-amino-1-((pent-4-en-1-yloxy)carbonyl)pyrrolidine-3-carboxylic acid, C=CCCCOC(=O)N1CC[C@@](N[*:1])(C(=O)[*:2])C1; (EtSSEt)AspE = (S)-2-amino-4-(2-(ethyldisulfaneyl)ethoxy)-4-oxobutanoic acid, CCSSCCOC(=O)C[C@H](N[*:1])C(=O)[*:2]; B5(3) = 2,2-bis(4-pentenyl)glycine (stitching residue), C=CCCCC(CCCC=C)(N[*:1])C(=O)[*:2]; B5 = 2-amino-2-(pent-4-en-1-yl)hept-6-enoic acid, C=CCCCC(CCCC=C)(N[*:1])C(=O)[*:2]; S6 = (S)-2-amino-2-methyloct-7-enoic acid, C=CCCCC[C@](C)(N[*:1])C(=O)[*:2]; S3 = (S)-2-amino-2-methylpent-4-enoic acid, C=CC[C@](C)(N[*:1])C(=O)[*:2]; Phe(2-Cl) = N[C@@H](Cc1ccccc1Cl)C(=O)O; Bta = N[C@@H](Cc1csc2ccccc12)C(=O)O; αAllylPro = C=CC[C@@]1(C(=O)O)CCCN1; tBuAla = CC(C)(C)C[C@H](N)C(=O)O; 3Thi = N[C@@H](Cc1ccsc1)C(=O)O; S8 = C=CCCCCCC[C@](C)(N)C(=O)O; hSer = N[C@@H](CCO)C(=O)O; Aib = CC(C)(N)C(=O)O

Assays:
[1] = molecular target: T1, B-cat-Halo (beta-catenin HaloTag Nano-BRET construct) (UniProt P35222 1-781); assay: cell-based or functional assay
T1 sequence (looked up): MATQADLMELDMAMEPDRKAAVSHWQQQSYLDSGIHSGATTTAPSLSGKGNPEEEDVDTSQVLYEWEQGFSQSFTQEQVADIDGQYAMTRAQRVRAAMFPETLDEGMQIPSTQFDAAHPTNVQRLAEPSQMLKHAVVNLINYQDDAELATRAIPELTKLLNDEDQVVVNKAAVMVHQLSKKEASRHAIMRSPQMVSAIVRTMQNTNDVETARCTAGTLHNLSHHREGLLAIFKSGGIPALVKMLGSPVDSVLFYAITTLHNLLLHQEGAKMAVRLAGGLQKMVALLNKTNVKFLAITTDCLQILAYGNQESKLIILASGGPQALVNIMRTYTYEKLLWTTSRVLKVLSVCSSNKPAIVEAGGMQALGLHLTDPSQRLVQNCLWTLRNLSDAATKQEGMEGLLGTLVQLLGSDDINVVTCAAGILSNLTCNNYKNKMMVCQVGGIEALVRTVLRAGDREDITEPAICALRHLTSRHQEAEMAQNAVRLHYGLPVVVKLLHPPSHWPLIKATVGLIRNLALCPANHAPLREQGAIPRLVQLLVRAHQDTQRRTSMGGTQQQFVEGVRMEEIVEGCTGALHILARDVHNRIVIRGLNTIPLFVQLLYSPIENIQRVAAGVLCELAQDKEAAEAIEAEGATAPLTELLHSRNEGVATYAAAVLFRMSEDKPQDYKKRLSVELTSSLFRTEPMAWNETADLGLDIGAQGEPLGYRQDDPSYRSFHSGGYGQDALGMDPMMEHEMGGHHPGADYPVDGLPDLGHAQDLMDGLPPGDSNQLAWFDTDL

[2] = molecular target: T2, beta-catenin in DLD1 TCF/LEF luciferase reporter cells (UniProt P35222 1-781); assay: cell-based or functional assay
T2 sequence (looked up): T1 sequence (looked up)

[3] = molecular target: T3, B-cat-Halo (beta-catenin HaloTag construct expressed in HEK293 cells) (UniProt P35222 1-781); assay: cell-based or functional assay
T3 sequence (looked up): T1 sequence (looked up)

[4] = molecular target: T4, full-length beta-Catenin (Uniprot ID P35222) (Homo sapiens (Human), UniProt P35222 2-781); assay: fluorescence polarization competition; peptide titrated against full-length beta-catenin + 5FAM-TCF4(10-53) probe
T4 construct: The assay protocols say only 'full-length'; No tag is stated, although the AlphaScreen kit is a Histidine (Nickel Chelate) kit; also called B-Catenin; bCat
T4 sequence: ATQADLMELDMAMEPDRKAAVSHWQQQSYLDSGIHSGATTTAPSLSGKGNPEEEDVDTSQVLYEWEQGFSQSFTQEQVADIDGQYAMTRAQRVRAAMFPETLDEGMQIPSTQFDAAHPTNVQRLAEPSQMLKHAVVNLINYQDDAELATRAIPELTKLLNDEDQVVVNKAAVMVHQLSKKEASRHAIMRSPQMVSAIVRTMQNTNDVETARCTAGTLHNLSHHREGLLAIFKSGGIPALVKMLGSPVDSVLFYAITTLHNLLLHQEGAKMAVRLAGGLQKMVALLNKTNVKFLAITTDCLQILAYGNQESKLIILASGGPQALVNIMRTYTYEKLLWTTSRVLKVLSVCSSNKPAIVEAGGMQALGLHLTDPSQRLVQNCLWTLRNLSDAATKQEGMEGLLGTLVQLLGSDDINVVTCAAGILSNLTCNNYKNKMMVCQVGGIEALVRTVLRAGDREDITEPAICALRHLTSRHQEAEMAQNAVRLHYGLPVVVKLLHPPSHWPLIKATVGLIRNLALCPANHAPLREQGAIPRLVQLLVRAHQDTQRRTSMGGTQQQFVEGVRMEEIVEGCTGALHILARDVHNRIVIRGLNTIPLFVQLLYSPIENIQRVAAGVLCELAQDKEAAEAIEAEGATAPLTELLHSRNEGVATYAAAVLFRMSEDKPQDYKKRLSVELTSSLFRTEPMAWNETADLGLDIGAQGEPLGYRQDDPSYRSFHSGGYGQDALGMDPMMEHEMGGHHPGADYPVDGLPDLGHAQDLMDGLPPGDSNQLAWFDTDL
Method: (§1) The plate was incubated protected from light for 60 minutes at 20° C. prior to read. Reads were performed on a CLARIOstar plate reader (BMG Labtech) in duplicate, and data were fitted to a 1:1 binding model with hill slope using an in-house script. All provided concentrations are final concentrations.

[5] = molecular target: T4, full-length beta-Catenin (Uniprot ID …); assay: AlphaScreen competition; peptide titrated against full-length beta-catenin + biotin-TCF4(10-53)
Method: Equal volume of the titrated peptide was added to the plate and incubated for 15 minutes at 20° C. Then 4 uL of donor and 4 uL acceptor beads at 10 ug/mL were added to the plate, for a 16 uL reaction pool and protected from light for 60 minutes at 20° C. prior to read. Reads were performed on a CLARIOstar plate reader (BMG Labtech) in duplicate, and data were fitted to a 1:1 binding model with hill slope using an in-house script. All provided concentrations are final concentrations.

[6] = molecular target: T5, full-length beta-Catenin (Uniprot ID P35222) (Homo sapiens (Human), UniProt P35222 2-781); assay: fluorescence polarization competition; 10 nM full-length beta-catenin + 10 nM 5FAM-TCF4 10-53 as competitor probe
T5 construct: Used at 10 nM in the FP probe solution as 'full-length'; Also used here for the endogenous beta-catenin of the DLD1 TCF/LEF reporter cells (functional rows); also called bCat; B-Catenin
T5 sequence: T4 sequence
Method: as §1

[7] = molecular target: T6, B-cat-Halo (beta-catenin HaloTag NanoBRET construct expressed in HEK293 cells) (UniProt P35222 1-781, HaloTag NanoBRET 618 Ligand bound to the HaloTag); assay: cell-based or functional assay
T6 sequence (looked up): T1 sequence (looked up)

[8] = molecular target: T7, full-length beta-Catenin (Uniprot ID P35222) (Homo sapiens (Human), UniProt P35222 1-781); assay: fluorescence polarization competition; displacement of 5FAM-TCF4(10-53) from full-length beta-catenin
T7 construct: Any tags on the recombinant protein are not described for the FP assay; also called bCat; B-Catenin
T7 sequence: T1 sequence (looked up)
Outline: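 Readings followed a light-protected 60-minute incubation at 20° C. Each read was done in duplicate. Curves were fit with a 1:1 binding model including hill slope, and stated concentrations are final.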

With Ac-[αAllylPro][(EtSSEt)AspE][tBuAla][B5(4)]DDAAFL[PyrS2″][3Thi][Bta]Q-NH2 (staple 1-4, 4-11) [I-1963] the “NanoBRET Abs IC50” value [1] was 25.6 µM.

B1: I-1983 (peptide)
peptide: Ac-[αAllylPro]D[tBuAla][S3]DDAAFL[Aib][3Thi][Bta]Q-NH2
modifications: staple 1-4; not fully specified; printed as Ac-PL3-Asp-Npg-S3-Asp-Asp-Ala-Ala-Phe-Leu-Aib-3Thi-BztA-Gln-NH2; also: staple -CH=CH- reduced to -CH2-CH2-
In the case of B1, the “NanoBRET Abs IC50” value [1] is reported as greater than 20 µM.

Ac-[αAllylPro]D[tBuAla][B5]DDAAFL[PyrS2][3Thi][Bta]Q-NH2 (staple 1-4, 4-11) [I-801] was tested, and the “DLD1 4% Abs IC50” value [2] was 4.3 µM and the “NanoBRET Abs IC50” value [3] was 5.8 µM.

For Ac-[αAllylPro]D[tBuAla][S6]DDAAFL[Aib][3Thi][Bta]Q-NH2 (staple 1-4) [I-1978], the “NanoBRET Abs IC50” value [1] was greater than 20 µM.

With Ac-[αAllylPro]D[tBuAla][B5]DDAAFN[PyrS2″][3Thi][Bta]T-NH2 (staple 1-4, 4-11) [I-814] the “DLD1 4% Abs IC50” value [2] was 16.5 µM and the “NanoBRET Abs IC50” value [3] was 18.9 µM.

B2: I-355 (peptide)
peptide: XDAXDDAAFVXAWQ
modifications: not fully specified; N-terminal Ac; C-terminal NH2; PL3 at 1, B5 at 4, S8 at 11 (stapled 1-4 and 4-11)
notes: Stapled peptide composition; Earlier-eluting isomer composition; also called Ac-PL3-Asp-Ala-B5-Asp-Asp-Ala-Ala-Phe-Val-S8-Ala-Trp-Gln-NH2
For B2, the EC50 [4] was 5 µM and the EC50 [5] was 10 µM.

Ac-[αAllylPro]DF[B5(16)]DDAAFT[PyrS2″][Phe(2-Cl)][Bta]Q-NH2 (staple 1-4, 4-11, Stapled (stitched) peptide composition) [I-1043] showed an EC50 [6] of 0.012 µM.

With Ac-[αAllylPro]DF[B5(4)]DDAAFT[PyrS2″][Phe(2-Cl)][Bta]S-NH2 (staple 1-4, 4-11, Stapled (stitched) peptide composition) [I-1049] the EC50 [6] was 0.006 µM.

For Ac-[αAllylPro]D[tBuAla][S3]DDAAFL[Aib][3Thi][Bta]Q-NH2 (staple 1-4) [I-1980], the “NanoBRET Abs IC50” value [1] was greater than 20 µM.

B3: I-1527: Ac-PL3-Asp-Ser-B5-Asp-Glu-Ala-Ala-Phe-Gln-S8-Phe-BztA-Gln-NH2 (peptide)
peptide: Ac-[αAllylPro]DS[B5(5)]DEAAFQ[S8]F[Bta]Q-NH2
modifications: staple 1-4, 4-11
notes: Stapled peptide composition; It has the same description as I-1526 and is the staple isomer composition of the later eluting HPLC peak
B3 was tested, and the “NanoBRET Abs IC50” value [7] was 30.3 µM and the IC50 [8] was 0.036 µM.

For Ac-[αAllylPro]D[tBuAla][B5(3)]DDAAF[hSer][PyrS2″][3Thi][Bta]Q-NH2 (staple 1-4, 4-11) [I-803], the “DLD1 4% Abs IC50” value [2] was 9 µM and the “NanoBRET Abs IC50” value [3] was 9.6 µM.
